B1: HK: human high molecular weight kininogen purified from plasma (protein, UniProt P01042 19-644, looked up)
Kininogen-1: QESQSEEIDCNDKDLFKAVDAALKKYNSQNQSNNQFVLYRITEATKTVGSDTFYSFKYEIKEGDCPVQSGKTWQDCEYKDAAKAATGECTATVGKRSSTKFSVATQTCQITPAEGPVVTAQYDCLGCVHPISTQSPDLEPILRHGIQYFNNNTQHSSLFMLNEVKRAQRQVVAGLNFRITYSIVQTNCSKENFLFLTPDCKSLWNGDTGECTDNAYIDIQLRIASFSQNCDIYPGKDFVQPPTKICVGCPRDIPTNSPELEETLTHTITKLNAENNATFYFKIDNVKKARVQVVAGKKYFIDFVARETTCSKESNEELTESCETKKLGQSLDCNAEVYVVPWEKKIYPTVNCQPLGMISLMKRPPGFSPFRSSRIGEIKEETTVSPPHTSMAPAQDEERDSGKEQGHTRRHDWGHEKQRKHNLGHGHKHERDQGHGHQRGHGLGHGHEQQHGLGHGHKFKLDDDLEHQGGHVLDHGHKHKHGHGHGKHKNKGKKNGKHNGWKTEHLASSSEDSTTPSAQTQEKTEGPTPIPSLAKPGVTVTFSDFQDSDLIATMMPPISPAPIQSDDDWIPDIQIDPNGLSFNPISDFPDTTSPKCPGRPWKSVSEINPTTQMKESYYFDLTDGLS
modifications: high molecular weight kininogen

Key:
[1] = water solubility of synthesized peptides; assay type: physicochemical
α-thrombin = α-thrombin (Homo sapiens, UniProt P00734); test: α-thrombin cleavage of thrombin receptor peptide NAT12 (HPLC); assay type: biochemical; design: cleavage product peak 3, share of NAT12 peak 1 area / cleavage product peak 2, share of NAT12 peak 1 area: dose or concentration left out as unconfirmed
Procedure: A further study was performed to determine whether BK analogs prevent α-thrombin from cleaving the thrombin receptor reported by Vu et al., Cell 64, 1057 (1991). A peptide, NAT12 (SEQ ID NO:2), which spans amino acids […] of the α-thrombin cleavage site on the thrombin receptor, was used to determine whether the BK analogs described herein blocked α-thrombin cleavage of the cloned receptor.
The cleavage study was performed according to the method of Molino et al., J. Biol. Chem. 270,11168(1995),inwhichNAT12(SEQ ID NO:2) was dissolved in a solution of 0.01 M NaH2 PO4 and 0.15 M NaCl, pH 7.4. […] Following incubation, each mixture was separated by applying the mixture to a Vyadec C-18 HPLC column in 0.1% trifluoroacetic acid and eluting the mixture with a gradient from 0% to 100% of 80% MeCN and 0.1% trifluoroacetic acid. The size of the separated products were confirmed by mass spectrometry.

[2] = procoagulant activity of purified HK; design: species or system human; settings: HK purified from plasma
Procedure: HK was purified from plasma by a modification of the procedures of Johnson et al., Thromb. Res. 48, 187 (1987) and Muller-Esterl et al., Methods Enzymol 163, 240 (1987). One hundred ml of 1 mM DFP-treated fresh frozen plasma was thawed at 37° C., to which 10 mM benzamidine-HCI, 40 μg/ml Polybrene, 2 mM EDTA, 0.2 mM PMSF, 0.2 mg/ml soybean trypsin inhibitor, 100 U/ml aprotinin and 2 M NaCl were added according to the method of Schmaier et al., Methods in Enzymology 169, 276 (1989). The treated plasma was then applied to a 2.5×20 cm column of CM-papain-SEPHAROSE 4B equilibrated in 50 mM phosphate buffer containing 2 M NaCl, 1 mM benzamidine-HCl, 40 μg/mL Polybrene, 0.2 mM PMSF, 0.02% (w/v) NaN3, pH 7.5. The CM-papain-SEPHAROSE 4B column was prepared by the procedure of Johnson et al., Thromb Res. 48, 187 (1987). HK and LK were eluted in a single peak after the addition of a 50 mM phosphate buffer solution containing 2 mM EDTA and 0.02% (w/v) NaN3, pH 11.5. Five ml fractions were collected into tubes containing 0.25 ml of a solution consisting of 4 mM PMSF in 1 M sodium acetate, pH 4.2 to bring the final pH to 6.0. The fractions containing HK and LK were then applied to a reactive Blue-Sepharose column (Sigma Chemical Corp, St. Louis, Mo.) equilibrated with 0.01 M sodium acetate pH 6.8 by the methods reported by Hasan et al., J. Biol. Chem. 269, 31822 (1994). […]

washed platelets = test: 125I-α-thrombin binding to platelets; design: species or system human; settings: 200 nM HK
Procedure: Gel filtered platelets were placed into polypropylene tubes and diluted with Hepes-Tyrode's buffer, containing 2 mM CaCl2 and 50 μM ZnCl2 and additions, to a final concentration of 2×10^8 platelets/ml. The reaction was started by the addition of 1 nM ^125 I-α-thrombin, which was prepared by using the iodogen technique as reported by Meloni et al., J. Biol. Chem. 266, 6786 (1991). Incubations were performed at 37° C. for specified times with various additions. After incubation, 50 μl aliquots were removed in triplicate for each experimental point and placed in polypropylene microcentrifuge tubes with an extended tip containing 200 μl of an oil mixture which consisted of 1 part Apiezon A oil to 9 parts of n-butylphthalate (Gustafson et al., J. Clin. Invest. 78, 810 (1986)), and centrifuged at room temperature for 2 min at 10,900× g in a microcentrifuge. (Model E, Beckman Instruments, Palo Alto, Calif.) The supernatant was removed and the tips amputated for placement in the gamma counter. The radioactivity present in the cell pellet was determined with an LKB Rack Gamma Counter (LKB Instruments, Inc., Gaithersburg, Md.). Nonspecific binding was measured in the presence of a 100-fold molar excess of α-thrombin.

human platelets = assay type: cell-based; settings: FIG. 2, concentration not given
Procedure: The cytoplasmic free Ca^2+ concentration ([Ca^2+ ]i) was measured using the fluorescent Ca^2 + indicator fura-2 (Molecular Probes, Inc., Eugene, Oreg.). Gel filtered platelets in Hepes-Tyrode's buffer were loaded with fura-2 by incubation at 37° C. with 1 μM fura-2/acetoxymethyl ester for 45 min according to the method of Rasmussen et al., J. Biol. Chem. 268, 14322 (1993). The labeled platelets were then re-gel filtered to remove any excess probe. Aliquots of the labeled platelet suspension were transferred into a quartz cuvette with a magnetic stirrer, which was then placed in a thermostatically controlled chamber at 37° C. in a fluorescence spectrophotometer (Dual Wave Length Shimazdu SP5000 Spectrofluorometer, Shimazdu USA, Pittsburgh, Pa.). Reagents were directly added to the cuvette. The excitation wave lengths varied between 340 and 380 nm. The fluorescence was measured by recording emitted light at 510 nm as reported by Fisher et al, Mol. Pharm. 35, 195 (1989). The minimum emission was determined on a 20 mM digitonin, 10 mM EGTA solubilized platelet sample; maximum emission was determined on the same sample with 10 mM Ca^2+ added. The intraplatelet free Ca^2+ concentration was calculated by the method of Grykiewicz et al., J. Biol. Chem. 260, 3440 (1985). The ratio of the fluorescence readings was calculated as R=340/380 nm and processed according to the equation [Ca^2+ ]i =KD ((R-Rmin)/Rmax -R))(Sf2 /Sb2) to determine the intraplatelet free Ca^2+ concentration. The KD for fura-2 was assumed to be 224 nM. Rmax and Rmin are the maximum and minimum fluorescence ratios measured at the end of the experiment, respectively; Sf2 and Sb2 are the fluorescence values at 380 nm in the absence and presence of saturating [Ca^2+ ], respectively.

| Molecule | water solubility [1] | cleavage product peak 2, share of NAT12 peak 1 area (α-thrombin) [%] | cleavage product peak 3, share of NAT12 peak 1 area (α-thrombin) [%] | reduction of NAT12 peak 1 area after α-thrombin (α-thrombin; 8 nM α-thrombin) [%] | specific activity (procoagulant activity) [2] | inhibition of 125I-α-thrombin binding to platelets (washed platelets) | inhibition of α-thrombin-induced calcium mobilization (human platelets) |
| --- | --- | --- | --- | --- | --- | --- | --- |
| SEQ ID NO:15: synthesized hydrophobic peptide, sequence not printed (NATFYFKIDNVKKARVQVVAGKKYFI) | hydrophobic requiring 0.01% DMSO in order to solubilize it | – | – | – | – | – | – |
| B1 | – | 14 | 18 | 32 | 11-22 U/mg | able to inhibit | inhibited |
